Laboratory results taken from a protein production outcome set (Wang et al. 2014).

Test: label from the status in PepcDB records
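Further: failed if final PepcDB status was selected cloned or expressed and not failed if soluble or beyond.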

In the case of “MIPTSREERLKGRRHVRTSEDRSFLVLLAAISVAFGWLLWPFSGALLWATLLAIIFAPLYRLCLETFPEWRNLAALSTVLVVVVMVLIPVAVVIASLVEQGGELYQRVQTGEISFAHPLQQLKSALPDWAASVSDRLAGIDLSALKERLSSLVVPAGQQLAGHAINIGQLTVEFVASLLVMLYLLFFFLRDGDELNLRIRDALPLRRSHTAAILDAFTLSVRGTIKGIILVALIQGALGGLIFWLLGLTAPLLAGALMALLSLLPVLGSALVWVPVGLYLLVAGAVTKGMILLVFGTFVIGLADNFLRPVLVGQSIRMPSYVVLLATLGGLATFGANGFVIGPLVAAMFLTAWHIFVGSKEQQEVRN”, the protein production is reported as “failed”.

With “MYPYIKLIATLFRAKNSPQMNLDEKSVLNCRAGLTDIDVFVELNNARHLTYMEFGRWDFAQRTGLLSLMRKNKWAFAVGGASVRYRRRIAFWKKFTVTTQVICHDGRWFYFLQETHIKDKVCSSALIKAAFTSKQGLVPATEVLAAYGKTTPNFDVPDWVNAWIDAESQRPWPLEHHHHHH” the protein production was “not failed”.

With “EADMLFSVTVPGSTANLGPGFDSVGMALSRYLKLTVFESDKWSFEAETETVAGIPAGTDNLIYQVAKRTADLYGKEMPPVHVKVWSDIPLARGLGSSAAAIVAAIELADELCGLKLSEADKLHLASLEEGHPDNAGASLVGGLVIGLHEDDETQM” the protein production was “failed”.

With “PVPGIRCRDAFSAASGIIDKMACVPELAVSEISAPRIVSSLAGDGHALFVANSMPARDMDLYAAPVAQKPLQVALNRGVSGIDGIISTAAGFSAGLGKPTTLLIGDISFLHDLNALCLLNHPWNPLIVIVLNNHGGSIFSFLPIASQTDRLDECFATPQNFSIESAARTFGIDYACPETNGDFTQLYAEALTTKKSLIIEIRSDREKNLLLHRSLKARLDPVFEKADC” the protein production was “failed”.

With “MSGKSSPLSVLEYLAIFAIIMTWGINNAAAKVATAYLPPMTVGGLRFLAALVFLFPFIRPPFPEPKKLAAIVLLTGPIHFGLVYVGFGMGQSLSPLVVASQLWIPFTALVAWKLLGETMRLPAVLGLIVAFVGVAWMTLDPHTSGDLPAIVLIVLASACWAVATILVRMTPGAKPLKVQAVTALFAAPSLLAMSFAFETQVVERVMTAPPIAWACVIFAGVVSTIGASALLFWLVQRREAGRVTPYFLLTPLVSCTLGVAFLGDKLTPQLLIGGAATMVGVALVAMTEKRARAEEALAETA” the protein production was “failed”.

In the case of “MTAGGTMTLKITFLGSGSSFAIGPENYQSNVLLELENDTLLIDAGTDIKYSLRDQGLSYKDIKNIYISHLHYDHCGGLEWFALITYFDPNLSHKPCLIASDKIINELWDKSLSGGLSTLPHERANLSAFFDVKAVKQYEGFVWRSIKFKLVQTVHYYSEYELMPSFGLIFSYNKSRILFTSDTQSCPVQLISFYEESDIIFHDCETTESKSGVHAHYSELVKLPSHLKKKMWLYHYNPGKLPNAKKDGFLGFVAKGQSFVF”, the protein production is reported as “failed”.

With “RFNPFIHQQDVYVQIDRDGRHLSPGGTEYTLDGYNASGKKEEVTFFAGKELRKNAYLKVKAKGKYVETWEEVKFEDMPDSVQSKLK” the protein production was “not failed”.

In the case of “RETYPDAVKICNICHSLLIQGQSCETCGIRMHLPCVAKYFQSNAEPRCPHCNDYWPHEIPK”, the protein production is reported as “not failed”.

In the case of “MIRDYKSKLEFLAFYDELTGLPNKNSLIRWLNLKVSQMDCIDTYLIFLEVRDLEKLNVTYGYDLVDELIIHISKRIKDIAGEGNKAFKIGFDRFAIICKSENISDFIERMLSQLLLPYNVNGNLIRVNFNIGAAQIENSNEAAANLMRRCDLALIKAKEEGLNEYVIFKPSIELEHHHHHH”, the protein production is reported as “failed”.

With “MVKHIWDSERAAQLPKGVEELVYRSNLIGSDRTVCNWGGGNTSMKTTEKDFRGREIEVMWVKGSGSDLATMKAHNFSGLKLDDIRPLIKRDQMPDEEMVDYLSHCMIDSKHPRPSIETLLHAFLPYKHVDHTHPDAIISICCADNGKQIAEDIYGNRFVWVPYVRPGFTLSKMIAEGVANNPHAELVLMEKHGLVTWGETSETCYQKTISIIQEAEQYINDRINQHEVFGGKRYQPLPEDKR” the protein production was “not failed”.

For “MPHAARSDAAALRAPAADDGAYGKPAIALHWIIALLIFAAFGLGLYMTDIPGFTPTKLKLYSYHKWAGITVLILAVLRVLWRLTHPAPAPVAGMPAWQQKAAEGAHIVLYLLILAVPLTGYLLSVAAGIKVVYLGLWELPMPFDKSDALKEIFQVAHEWLNWTMATIVVLHILAALKHHIVDSDGTLRRMLPFLR”, the protein production was “failed”.

With “GIHYTSEKDIRQIVRPTIADYWEGKIDEATTYEDLEKLKQELREYRVLDPACGSGNFLYVAYQELKRLERVLLNKIYERRKRFQGEVLQQEEIGIVTPLQFFGMDTNPFAVQLARVTMMIARKIAIDKFGLTEPALPLDSLDQNIVCQDALFNDWPKADAIIGNPPFLGGSRVRLELGDKYVERIFEKFSDVKDKVDFCVYWFRLAHENLNKTGRAGLVGTNSISQGFSRRASLEYIVNNGGIIHDAISTQVWSGQANVHVSLVNWQYLKPPEYVLDHEIVKNINSSLKSETDVSNAVKLK” the protein production was “failed”.

With “MPTINQLIRKERKKVVKKTKSPALVECPQRRGVCTRVYTTTPKKPNSALRKVAKVRLTSKFEVISYIPGEGHNLQEHSIVLVRGGRVKDLPGVKYHIVRGALDTAGVNKRTVSRSKYGTKKAKATDKKATDNKKK” the protein production was “failed”.

With “MNISEINGFEVTGFVVRTTNADEMNPMTAKIGNLWEKFYLNAAPKLTDKSKVYGLYTNYESDFTGAFDVIACSDTLSPQLLSESVKTKVSSGKYVTFSATGEMPQVVIDLWNEVWNYFASEHCPHKRAYTTDFEYYKSANTVEISIAVR” the protein production was “not failed”.

With “MNHLPEKMRPYRDLLEKSAKEYVKLNVRKGKTGRYDSKIAGDPYFPKHETYPTDENGQPMKLLAQINFSHIPQLDGYPSSGILQFYISVHDDVYGLNFDDRCEQKNFRVIYFENIVENDDELVSDFSFIGTGECDFPILSEAAVEPVKSSEWVLPTDFQFEQYTGMETMEFFGQFGEDEEDIYNELAENGFGHKIGGYASFTQHDPREYAYKEHTIMLLQIDSDDDIDSMWGDVGIANFFITPEDLRKKDFSNVLYNWDCS” the protein production was “not failed”.

For “MSKKINELLRYCEENYIERGSLELALRCAVSICKANPDAPQAYAHVAAYRILLTAANYRTVTGEPDWYAVLGINKRGSSKSVVNAIDRRCEEIIEVLDGETGVSKAVSRVYDLVRLGVSELMDEDRRRAYDLRSGFSIIN”, the protein production was “failed”.

For “MNAEDFPTPDADVESVTPETLKSRIDDGESVTILDARMSGDYEEWHIDGENVESINVPYFHFLEDELDADIIADVPDDREVTVLCAKGGASEYVAGTLADRGYDVHHLEDGMNGWARIYETVEVTDYDGAGTLLQYQRPSSGCLGYLVYDDGEAAIIDPLRAFADRYFDDADELGVDLKYALDTHIHADHISGVRGLDAAGVEGVIPAAAVDRGVTYAAEQSSASPVSQARQDADDLTTAEDGDTFEVGDVTIETVATPGHTTGMTSYLVDDSLLATGDGLFIESVARPDLEEGDEGAPDAARMLYESLQERVLTLPDDTLIGGAHFSDAAEPANDGTYTAPIGQLVEEMDALTMDEDDFVETILADMPPRPANYEDIIATNLGQNTVDDEEAFTLELGPNNCAASQESLAGD”, the protein production was “failed”.

With “MKIPIILTLMLFSLGFIFGFISINNLSKINDKDLSNYIPNIQFNFPSILTNNLKVIFLMLAGSITFGLSTFINLIFNGFNVGVLIGSISLTNEPLKLITALILPHGIFEISAMLISAVAGFKIPYKVTLYLLDKKEKPLTEEDIKDFLKLSLISIILIVIAAFIEVYITPKIATYLLT” the protein production was “failed”.

For “MNGGTFTPGKEKDRAGIYFNFKTTAEERVSIGDRGTVALPVVMSWGEPKTFVSISSIEDLNKKVGLNIDDPSLLLFREAKKNAQTVLLYRLNTGAPAKAQIGETLSVTAKYGGEKGNDISIRISENVLDSKKFDVTTFVGTDEADRQTVKTAEELTANAYVAFQGEGALELTAGTKLSGGENGTASVADYTAFLDAAETEYFNTIALPVADNEQLKATFAAFIKRLRDKQGQKVQGVVADYAGDYEGIINVTGGVVLEDGTEITPEKATAWVAGASAGATFNQSLTFVEYEGAVDVLNRLDEDQVIERLKKGEFLFTFDARDQSVSVEKDINSLTSFTADKNKKFSKNKIIRVLDGVNNDLTRELKALIKARKASGSDIPASDDGLQYVKTLIIQYMTALQEAGGITGFDSESDIAITLNEDRDGFLIDLAVQPVDAAEKFYFNVEVK”, the protein production was “failed”.

With “MSLFRSRPNALSQRSVIASSSELASLAGRDILKRGGNIFDAALAVSAMLCVTQNNLCGLGGDLFALIRDENGQIMDLNGSGQASRAVSIDYYESMGLTKIPERGPYAAITVPGIAGSWDEIFRKFATMDIADILEPAIRTASAGFPITQNYSDSIARSAPVIGQYRGWSSIFMPNGSVPVAGEILKQPDLAESFRLMSEEGFRSFYDGSLADIIIAGLEGTGSPLSDRDLRVYRPLIGKPVFTDLDEFRIYETSPNSQGITVIEWIRGMESHGYDSRTMWEAKIEDIFETMEEAYDKRRKITDPSYMNIAQHDSANGKKDGLPKRDHNDIGDTTYFSISDSEGRSVSIIQSNYMGFGSGIVPKGTGFVLQNRGSYFTLQRDHPNALMPGKRTFHTLAACMVEKEHDLYASLGSMGGDIQPQVQMQILMEILKDNTDPQAILDKPRWTEPYTIYEAPGAVYVESEELYRNVSKQISGRKVVLRDVSQEFGTAQITTLIRGDVVVGAADPRGDGIAIPYSEGHHHHHH” the protein production was “not failed”.

In the case of “MTADEWPQRLIRFTDWSHAEATAVEHLLPVLIAQESELAQWSFLRKHPWWRLRYRPACPDSAKALDAALDELVDAGVLASWTRGIYEPEETAFGGPAAMKIAHALFHYDSRHLLDEAARQQTVSGPRLGRRELAVLLLSVAMRAAGLDWYEQGDVWARIAAERSGDEVRSPQRHRAAVHRLMTVDVSTTSRSVARGRLAPLAEWIATFEWFGQQLADLNRQGRLERGLRAVIAHHGIFHFNRLGLAAQDQHTLSTLAKEVVMGTSDNAASTQAEGAPGATVNGVNSDTIEAPSADRLRAQLIDHLVETGCVRTPRVEEAMRTVPRHLFVPNAPLEKAYGNAPVDTKFDGSGRSISCASQPDIVAMMLEQLDVQPGQKILELGAGTGFNAGLLGYLVGETGHVTTIDVDEDIVAGARGGLAAAGIHNVEVILGDGAVGHTPNAPYDRIEATVGAHGVPHAWLDQLAPGGRLLTPLRLRGSVSRSIAFENQDGAWRSVGSQMNTFMPLRRGIADDPRLFVPLDPDHTVTLVTNGDQKVDADALGDIFRQPRTEAWTDVTFRGPESAEYLELWLTCAMPNGLSRMPAKNEAIEKGLVTAPYPSSTAVFEDGTLTYLTRRPYAKKAPDGATLYEFGVIGHGPDAEALAGDVADQIRAWDQDFRALDVGFEIQPLDAAPLAPKPGRFAFDNPLNRIVIEWQ”, the protein production is reported as “failed”.

With “MGVLRVGLCPGLTEEMIQLLRSHRIKTVVDLVSADLEEVAQKCGLSYKALVALRRVLLAQFSAFPVNGADLYEELKTSTAILSTGIGSLDKLLDAGLYTGEVTEIVGGPGSGKTQVCLCMAANVAHGLQQNVLYVDSNGGLTASRLLQLLQAKTQDEEEQAEALRRIQVVHAFDIFQMLDVLQELRGTVAQQVTGSSGTVKVVVVDSVTAVVSPLLGGQQREGLALMMQLARELKTLARDLGMAVVVTNHITRDRDSGRLKPALGRSWSFVPSTRILLDTIEGAGASGGRRMACLAKSSRQPTGFQEMVDIGTWGTSEQSATLQGDQT” the protein production was “failed”.

In the case of “VIKFSSEDCGTCHKMSHYDANVAEELGAEFVSVMLQDTEAYRKYRKVLLKQYPNKEGMGWPTYLLVTDPEGDFTIHGELKGGMPKGEFRTRLGALLA”, the protein production is reported as “failed”.
